Reference: paper PMC3918043

B1: wtANF-Sp-s4 (dsDNA)
DNA 1: GACATCTAGGGTGGGGGTGGGCTGTCTGG
DNA 2: CCAGACAGCCCACCCCCACCCTAGATGTC
B2: wtANF-Sp-s1 (dsDNA)
DNA 1: GTGACAGAATGGGGAGGGTTCCAGCTCT
DNA 2: AGAGCTGGAACCCTCCCCATTCTGTCAC
B3: wtANF-Sp-s3 (dsDNA)
DNA 1: TATTGCCTCTCCTCCCGCCCTTATTTGGAG
DNA 2: CTCCAAATAAGGGCGGGAGGAGAGGCAATA
B4: wtANF-Sp-s2 (dsDNA)
DNA 1: TGAGGGTCTGGGGGAGGGAGGGTTACTGGAG
DNA 2: CTCCAGTAACCCTCCCTCCCCCAGACCCTCA

target: Sp1 (human, UniProt P08047 1-785); assay: EMSA
Sequence (P08047 whole entry): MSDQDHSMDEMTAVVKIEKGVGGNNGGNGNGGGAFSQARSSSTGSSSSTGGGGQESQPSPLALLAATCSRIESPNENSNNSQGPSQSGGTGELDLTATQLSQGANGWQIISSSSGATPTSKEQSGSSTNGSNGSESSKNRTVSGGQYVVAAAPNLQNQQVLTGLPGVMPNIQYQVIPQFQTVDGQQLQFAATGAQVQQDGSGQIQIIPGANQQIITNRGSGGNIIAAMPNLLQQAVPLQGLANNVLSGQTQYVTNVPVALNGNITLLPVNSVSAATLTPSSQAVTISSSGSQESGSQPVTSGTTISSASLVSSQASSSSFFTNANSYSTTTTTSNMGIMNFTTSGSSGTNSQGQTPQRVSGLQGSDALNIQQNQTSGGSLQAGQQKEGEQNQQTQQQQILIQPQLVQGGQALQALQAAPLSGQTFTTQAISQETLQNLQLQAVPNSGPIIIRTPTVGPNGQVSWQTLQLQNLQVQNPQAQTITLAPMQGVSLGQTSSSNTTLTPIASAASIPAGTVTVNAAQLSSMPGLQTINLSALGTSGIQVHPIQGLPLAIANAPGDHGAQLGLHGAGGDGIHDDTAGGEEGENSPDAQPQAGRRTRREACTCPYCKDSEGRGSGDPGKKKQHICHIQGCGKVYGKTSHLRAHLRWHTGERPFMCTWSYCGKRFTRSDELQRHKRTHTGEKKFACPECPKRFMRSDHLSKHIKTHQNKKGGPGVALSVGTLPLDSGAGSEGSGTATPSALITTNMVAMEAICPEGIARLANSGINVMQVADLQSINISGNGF

Binding result, binds:
B1, B2, B3, B4
